Results published in patent US20090068182A1 (ARIUS RESEARCH, published 2009).

Experiments:
[1] = target: T1, human CD9 (human, UniProt P21926 2-228); assay: flow cytometry on melanoma WM983 cells, antibody at 20 micrograms/mL
T1 construct: whole, on cells; Endogenous CD9; It stood on human cell lines (FACS, cell ELISA) and in tissue sections (IHC); For immunoprecipitation and Western blot it was solubilised from BxPC-3 cell lysate (band of about 25 kDa); also called AR40A746.2.3 antigen; IDAC 141204-01 antigen
T1 sequence (looked up): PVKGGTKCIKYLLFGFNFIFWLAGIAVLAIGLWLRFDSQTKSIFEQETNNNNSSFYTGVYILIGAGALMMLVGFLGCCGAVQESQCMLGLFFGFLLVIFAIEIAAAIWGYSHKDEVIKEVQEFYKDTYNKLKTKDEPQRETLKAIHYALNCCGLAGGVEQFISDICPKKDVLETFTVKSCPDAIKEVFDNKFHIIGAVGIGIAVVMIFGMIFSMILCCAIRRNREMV
Description: (§1) All cell lines were obtained from the American Type Tissue Collection (ATCC, Manassas, Va.) except for the melanoma cell lines WM9, WM35, WM164, WM451, WM537, WM852, WM983, WM1205 and WM1232 which were obtained from Dr. David Hogg (University of Toronto, Toronto, Canada).
(§2) Cells were prepared for FACS by initially washing the cell monolayer with DPBS (without Ca⁺⁺ and Mg⁺⁺). Cell dissociation buffer (Invitrogen, Burlington, ON) was then used to dislodge the cells from their cell culture plates at 37° C. After centrifugation and collection, the cells were resuspended in DPBS containing MgCl₂ CaCl₂ and 2 percent fetal bovine serum at 4° C. (staining media) and counted, aliquoted to appropriate cell density, spun down to pellet the cells and resuspended in staining media at 4° C. in the presence of the test antibody (AR40A746.2.3) or control antibodies (isotype control, anti-EGFR). Isotype control and the test antibody were assessed at 20 micrograms/mL whereas anti-EGFR was assessed at 5 micrograms/mL on ice for 30 minutes. Prior to the addition of Alexa Fluor 546-conjugated secondary antibody the cells were washed once with staining media. […] Flow cytometric acquisition of the cells was assessed by running samples on a FACSarray™ using the FACSarray™ System Software (BD Biosciences, Oakville, ON). […]

[2] = target: T1, human CD9; assay: flow cytometry on colon cancer HT-29 cells, antibody at 20 micrograms/mL
Description: (§3) David Hogg (University of Toronto, Toronto, Canada).
(§4) Cells were prepared for FACS by initially washing the cell monolayer with DPBS (without Ca⁺⁺ and Mg⁺⁺). Cell dissociation buffer (Invitrogen, Burlington, ON) was then used to dislodge the cells from their cell culture plates at 37° C. After centrifugation and collection, the cells were resuspended in DPBS containing MgCl₂ CaCl₂ and 2 percent fetal bovine serum at 4° C. (staining media) and counted, aliquoted to appropriate cell density, spun down to pellet the cells and resuspended in staining media at 4° C. in the presence of the test antibody (AR40A746.2.3) or control antibodies (isotype control, anti-EGFR). Isotype control and the test antibody were assessed at 20 micrograms/mL whereas anti-EGFR was assessed at 5 micrograms/mL on ice for 30 minutes. Prior to the addition of Alexa Fluor 546-conjugated secondary antibody the cells were washed once with staining media. The Alexa Fluor 546-conjugated antibody in staining media was then added for 30 minutes at 4° C. The cells were then washed for the final time and resuspended in fixing media (staining media containing 1.5 percent paraformaldehyde). Flow cytometric acquisition of the cells was assessed by running samples on a FACSarray™ using the FACSarray™ System Software (BD Biosciences, Oakville, ON). […]
(§5) FIG. 2 presents the mean fluorescence intensity fold increase above isotype control. […]

[3] = target: T1, human CD9; assay: flow cytometry on melanoma A2058 cells, antibody at 20 micrograms/mL
Description: as §1, §2

[4] = target: T1, human CD9; assay: flow cytometry on melanoma WM1232 cells, antibody at 20 micrograms/mL
Description: as §1, §2

[5] = target: T1, human CD9; assay: flow cytometry on colon cancer SW1116 cells, antibody at 20 micrograms/mL
Description: as §1, §2

[6] = target: T1, human CD9; assay: flow cytometry on colon cancer DLD-1 cells, antibody at 20 micrograms/mL
Description: as §1, §2

[7] = target: T1, human CD9; assay: flow cytometry on melanoma WM451 cells, antibody at 20 micrograms/mL
Description: as §1, §2

[8] = target: T1, human CD9; assay: flow cytometry on pancreatic cancer BxPC-3 cells, antibody at 20 micrograms/mL
Description: as §1, §2

[9] = target: T1, human CD9; assay: flow cytometry on prostate cancer DU-145 cells, antibody at 20 micrograms/mL
Description: as §3, §4, §5

[10] = target: T2, AR40A746.2.3 antigen (CD9) in rhesus monkey normal tissues (rhesus monkey, UniProt I0FWF4 2-228); assay: IHC on normal tissue micro arrays, 5 micrograms/mL
T2 construct: whole, on cells; also called rhesus monkey CD9
T2 sequence: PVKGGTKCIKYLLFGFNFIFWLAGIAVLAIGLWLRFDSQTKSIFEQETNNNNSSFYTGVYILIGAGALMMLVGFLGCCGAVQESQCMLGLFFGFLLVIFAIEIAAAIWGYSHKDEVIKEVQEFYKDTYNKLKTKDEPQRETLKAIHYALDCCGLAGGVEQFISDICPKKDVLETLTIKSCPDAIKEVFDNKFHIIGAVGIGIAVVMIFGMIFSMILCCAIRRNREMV
Description: (§6) IHC studies were conducted to evaluate the cross reactivity of AR40A746.2.3 to non human species tissues in order to find suitable preclinical toxicology model(s). All tissues used were formalin fixed paraffin embedded. The binding of AR40A746.2.3 to 8 normal tissues of cynomolgus and rhesus monkey (Biochain, CA, USA) and 10 normal tissues of rabbit, rat, mouse and sheep (Zymed laboratories Inc, CA, USA) was performed using tissue micro arrays. Previous experiments were conducted to optimize the IHC binding conditions of the antibody. Tissue sections were deparaffinized by drying in an oven at 58° C. for 1 hour and dewaxed by immersing in xylene 5 times for 4 minutes each in Coplin jars. Following treatment through a series of graded ethanol washes (100 to 75 percent) the sections were re-hydrated in water. The slides were immersed in 10 mM citrate buffer at pH 6 (Dako, Toronto, Ontario) then microwaved at high, medium, and low power settings for 5 minutes each and finally immersed in cold PBS. […] Immunoreactivity of the primary antibodies was detected/visualized with HRP conjugated secondary antibodies as supplied (Dako Envision System, Toronto, Ontario) for 30 minutes at room temperature. […]

[11] = target: T1, human CD9; assay: flow cytometry on non-cancer lung Hs888.Lu cells, antibody at 20 micrograms/mL
Description: as §1, §2

[12] = target: T1, human CD9; assay: flow cytometry on melanoma A375 cells, antibody at 20 micrograms/mL
Description: as §1, §2

[13] = target: T1, human CD9; assay: flow cytometry on prostate cancer PC-3 cells, antibody at 20 micrograms/mL
Description: as §1, §2

[14] = target: T1, human CD9; assay: flow cytometry on colon cancer Lovo cells, antibody at 20 micrograms/mL
Description: as §3, §4, §5

[15] = target: T1, human CD9; assay: flow cytometry on melanoma WM9 cells, antibody at 20 micrograms/mL
Description: as §1, §2

[16] = target: T1, human CD9; assay: flow cytometry on breast cancer MDA-MB-231 cells, antibody at 20 micrograms/mL
Description: as §1, §2

[17] = target: T1, human CD9; assay: flow cytometry on breast cancer MCF-7 cells, antibody at 20 micrograms/mL
Description: as §1, §2

[18] = target: T1, human CD9; assay: flow cytometry on melanoma WM537 cells, antibody at 20 micrograms/mL
Description: as §1, §2

[19] = target: T1, human CD9; assay: flow cytometry on non-cancer skin CCD-27sk cells, antibody at 20 micrograms/mL
Description: as §1, §2

[20] = target: T1, human CD9; assay: flow cytometry on melanoma WM852 cells, antibody at 20 micrograms/mL
Description: as §1, §2

[21] = target: T1, human CD9; assay: flow cytometry on melanoma WM164 cells, antibody at 20 micrograms/mL
Description: as §1, §2

[22] = target: T1, human CD9; assay: flow cytometry on melanoma WM35 cells, antibody at 20 micrograms/mL
Description: as §1, §2

[23] = target: T3, AR40A746.2.3 antigen (CD9) in mouse normal tissues (mouse, UniProt P40240 1-226); assay: IHC on formalin fixed paraffin embedded normal tissue micro array
T3 construct: whole, on cells; also called mouse CD9
T3 sequence (looked up): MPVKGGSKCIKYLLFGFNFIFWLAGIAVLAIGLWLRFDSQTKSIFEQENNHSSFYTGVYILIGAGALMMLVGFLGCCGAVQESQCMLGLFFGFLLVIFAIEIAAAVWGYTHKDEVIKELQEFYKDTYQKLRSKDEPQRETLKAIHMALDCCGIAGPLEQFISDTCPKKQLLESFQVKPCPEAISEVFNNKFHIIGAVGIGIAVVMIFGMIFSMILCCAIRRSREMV
Description: as §6

[24] = target: T4, AR40A746.2.3 antigen (CD9) in rat normal tissues (rat, UniProt P40241 1-226); assay: as above
T4 construct: whole, on cells; also called rat CD9
T4 sequence (looked up): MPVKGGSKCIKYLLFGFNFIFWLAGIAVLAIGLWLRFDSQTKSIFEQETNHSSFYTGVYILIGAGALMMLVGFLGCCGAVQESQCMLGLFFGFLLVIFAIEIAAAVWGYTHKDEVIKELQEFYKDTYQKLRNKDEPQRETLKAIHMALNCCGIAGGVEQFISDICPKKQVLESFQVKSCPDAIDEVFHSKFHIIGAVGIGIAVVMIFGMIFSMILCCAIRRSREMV
Description: as §6

[25] = target: T1, human CD9; assay: flow cytometry on ovarian cancer OVCAR-3 cells, antibody at 20 micrograms/mL
Description: as §3, §4, §5

mean fluorescence intensity fold increase above isotype control [1]: 3.9 fold | mean fluorescence intensity fold increase above isotype control [2]: 80.5 fold | mean fluorescence intensity fold increase above isotype control [3]: 2.7 fold | mean fluorescence intensity fold increase above isotype control [4]: 3.4 fold | mean fluorescence intensity fold increase above isotype control [5]: 13.3 fold | mean fluorescence intensity fold increase above isotype control [6]: 50.5 fold | mean fluorescence intensity fold increase above isotype control [7]: 7 fold | mean fluorescence intensity fold increase above isotype control [8]: 18.4 fold | mean fluorescence intensity fold increase above isotype control [9]: 30.4 fold | binding result [10]: binds | mean fluorescence intensity fold increase above isotype control [11]: 20.5 fold | mean fluorescence intensity fold increase above isotype control [12]: 4.7 fold | mean fluorescence intensity fold increase above isotype control [13]: 37.8 fold | mean fluorescence intensity fold increase above isotype control [14]: 31.6 fold | mean fluorescence intensity fold increase above isotype control [15]: 4.8 fold | mean fluorescence intensity fold increase above isotype control [16]: 19.8 fold | mean fluorescence intensity fold increase above isotype control [17]: 107 fold | mean fluorescence intensity fold increase above isotype control [18]: 2.6 fold | mean fluorescence intensity fold increase above isotype control [19]: 8.7 fold | mean fluorescence intensity fold increase above isotype control [20]: 4.2 fold | mean fluorescence intensity fold increase above isotype control [21]: 3.3 fold | mean fluorescence intensity fold increase above isotype control [22]: 13.8 fold | binding result [23]: no binding (tested: 5 micrograms/mL) | binding result [24]: no binding (tested: 5 micrograms/mL) | mean fluorescence intensity fold increase above isotype control [25]: 64.9 fold
B1: AR40A746.2.3 monoclonal antibody (hybridoma IDAC 141204-01) (antibody, V domains shown)
VH: DVQLQESGPGLVKPSQSLSLTCTVTGYSITSDYAWNWIRQFPGNKLEWMGYISYSGFTNYNPSLKSRISITRDTSKNQFFLQLSSVTTEDTATYFCEGGNYRYSWFPYWGQGTLVTVSA
VL: DIQMTQTTSSLSASLGDRVTISCSASQGISNYLNWYQQKPDGNVKLLIYYTSSLHSGVPSRFSGSGSGTDYSLTISNLEPEDIATYYCQQYSKLPYTFGGGTKLEIKR
notes: also called IDAC 141204-01 antibody; mAR40A746.2.3
